Data taken from PMC11272940, “UNC-45 assisted myosin folding depends on a conserved FX3HY motif implicated in Freeman Sheldon Syndrome” (Nature Communications, 2024).

B2: Full length C. elegans UNC-45 (from E. coli) (natural protein, UniProt G5EG62 1-961, looked up)
chain: MVARVQTAEEIRDEGNAAVKDQDYIKADELYTEALQLTTDEDKALRPVLYRNRAMARLKRDDFEGAQSDCTKALEFDGADVKALFRRSLAREQLGNVGPAFQDAKEALRLSPNDKGIVEVLQRLVKANNDKIKQTTSLANKVTDMEKLAFRGEAKDTEQKMTALNNLLVLCRESESGATGVWNQGALVPFVLNLINDASENEEVTVTAIRILDETIKNSVRCMKFLAMHDPDGPKSVRFVCRLMCKKSTKDFVDATGILVQRVFNAMAKMDRQKEMKPDPEVAEANKIWIIRVLLELQEMLQDPKVGAVQRETCIDLFLKNLMHMDGGIPRGWSWKFVEERGLLALLDVASQIPELCEYPVSAETRQHVAICLQRLEEDMVFDTKRTIFKEKVDMFFNALISRCTNDDEGHKYRIKLSCFLITMLQGPVDIGINLITNDQLTPIMLEMAASQDHLMQGIAAELIVATVSKHERAINMLKVGIPVLRALYDSEDPTVKVRALVGLCKIGAAGGDDISKATMKEEAVISLAKTCKKFLLETEKYSVDIRRYACEGLSYLSLDADVKEWIVDDSLLLKALVLLAKKAGALCVYTLATIYANLSNAFEKPKVDEEMVKLAQFAKHHVPETHPKDTEEYVEKRVRALVEEGAVPACVAVSKTESKNALELIARSLLAFAEYEDLRGRIIAEGGTVLCLRLTKEASGEGKIKAGHAIAKLGAKADPMISFPGQRAYEVVKPLCDLLHPDVEGKANYDSLLTLTNLASVSDSIRGRILKEKAIPKIEEFWFMTDHEHLRAAAAELLLNLLFFEKFYEETVAPGTDRLKLWVLYSAEVEEERLSRASAAGFAILTEDENACARIMDEIKSWPEVFKDIAMHEDAETQRRGLMGIANIMHSSNKLCSEIVSSEVFRVLVAVTKLGTINQERAGSTEQAKRGLEAAEKFGLIKATDREIYERENQMSTIQE
notes: UNC-45 chaperone, C. elegans; The C-terminal Strep tag is stated for the peptide spot assay; also called wildtype UNC-45; purified UNC-45; source: E. coli, purified (HisTrap or StrepTrap, SEC); not shown: Strep, C-terminal, kept

Assays:
[1] = target: B2; experiment: cross-linking; XL-MS of the in vitro reconstituted UFD-2:UNC-45:myo^UF complex; 0.25 mM DSS, 20 mM HEPES pH 8.0, 150 mM NaCl, 25 °C, 30 min; conditions: both partners purified
[2] = target: T1, C. elegans UNC-45 (co-expressed with the MHC-B motor domain in insect cells) (C. elegans, UniProt G5EG62 1-961); experiment: tandem affinity co-purification + SEC; co-expressed in insect cells; HisTrap (myosin) then Strep-Tactin (UNC-45), then Superdex 200 in 20 mM HEPES pH 8.0, 150 mM NaCl; conditions: partners not purified
T1 construct: UNC-45 chaperone, C. elegans; also called UNC-45 WT; wildtype UNC-45; source: High Five insect cells, baculovirus, co-expressed with myosin; purified as a complex (HisTrap, Strep-Tactin, SEC); in cleared lysate in the solubility assay
T1 sequence: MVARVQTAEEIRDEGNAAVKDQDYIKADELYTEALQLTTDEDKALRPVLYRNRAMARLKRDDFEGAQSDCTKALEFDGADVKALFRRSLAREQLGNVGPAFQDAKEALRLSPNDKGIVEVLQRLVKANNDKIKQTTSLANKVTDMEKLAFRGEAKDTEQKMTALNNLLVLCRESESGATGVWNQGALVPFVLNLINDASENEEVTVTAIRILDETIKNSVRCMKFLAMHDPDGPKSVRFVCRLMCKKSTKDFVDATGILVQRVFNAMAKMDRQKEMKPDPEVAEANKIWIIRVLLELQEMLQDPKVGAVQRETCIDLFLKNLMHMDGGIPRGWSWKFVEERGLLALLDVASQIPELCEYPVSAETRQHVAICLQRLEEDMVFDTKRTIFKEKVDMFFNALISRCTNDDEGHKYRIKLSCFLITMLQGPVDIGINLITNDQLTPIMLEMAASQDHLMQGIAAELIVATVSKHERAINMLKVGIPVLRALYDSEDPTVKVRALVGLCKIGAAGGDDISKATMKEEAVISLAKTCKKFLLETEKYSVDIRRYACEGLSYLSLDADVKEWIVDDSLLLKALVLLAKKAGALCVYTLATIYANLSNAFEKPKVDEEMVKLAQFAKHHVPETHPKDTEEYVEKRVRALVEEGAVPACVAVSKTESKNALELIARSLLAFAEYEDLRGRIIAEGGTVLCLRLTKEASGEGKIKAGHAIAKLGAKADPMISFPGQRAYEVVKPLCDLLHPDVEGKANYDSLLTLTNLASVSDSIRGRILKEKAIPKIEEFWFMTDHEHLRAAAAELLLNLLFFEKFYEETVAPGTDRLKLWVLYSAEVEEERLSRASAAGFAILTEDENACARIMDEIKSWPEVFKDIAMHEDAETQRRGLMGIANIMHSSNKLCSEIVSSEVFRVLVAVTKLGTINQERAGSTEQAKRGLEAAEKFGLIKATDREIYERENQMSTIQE

[3] = target: T2, 547–588 myosin peptide (MHC-B) (C. elegans, UniProt P02566 547-588); experiment: thermal shift assay; 1 μM UNC-45 or UNC-45 ΔUCS, 2 mM peptide, SYPRO Orange, 20 mM HEPES pH 8.0, 150 mM NaCl; triplicates; conditions: both partners purified
T2 construct: also called native peptide; identified myosin ligand; source: synthetic peptide
T2 peptide (looked up): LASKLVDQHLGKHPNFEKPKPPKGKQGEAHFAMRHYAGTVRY

[4] = target: T3, Kluyveromyces lactis SHE4, wildtype (Kluyveromyces lactis); experiment: ITC; 25 °C, VP-ITC; 10 μM SHE4 in the cell, 90 μM (N475A: 107 μM) peptide in the syringe; 10 mM HEPES pH 8.0, 150 mM NaCl, 1 mM TCEP; single site model; conditions: both partners purified
T3 chain: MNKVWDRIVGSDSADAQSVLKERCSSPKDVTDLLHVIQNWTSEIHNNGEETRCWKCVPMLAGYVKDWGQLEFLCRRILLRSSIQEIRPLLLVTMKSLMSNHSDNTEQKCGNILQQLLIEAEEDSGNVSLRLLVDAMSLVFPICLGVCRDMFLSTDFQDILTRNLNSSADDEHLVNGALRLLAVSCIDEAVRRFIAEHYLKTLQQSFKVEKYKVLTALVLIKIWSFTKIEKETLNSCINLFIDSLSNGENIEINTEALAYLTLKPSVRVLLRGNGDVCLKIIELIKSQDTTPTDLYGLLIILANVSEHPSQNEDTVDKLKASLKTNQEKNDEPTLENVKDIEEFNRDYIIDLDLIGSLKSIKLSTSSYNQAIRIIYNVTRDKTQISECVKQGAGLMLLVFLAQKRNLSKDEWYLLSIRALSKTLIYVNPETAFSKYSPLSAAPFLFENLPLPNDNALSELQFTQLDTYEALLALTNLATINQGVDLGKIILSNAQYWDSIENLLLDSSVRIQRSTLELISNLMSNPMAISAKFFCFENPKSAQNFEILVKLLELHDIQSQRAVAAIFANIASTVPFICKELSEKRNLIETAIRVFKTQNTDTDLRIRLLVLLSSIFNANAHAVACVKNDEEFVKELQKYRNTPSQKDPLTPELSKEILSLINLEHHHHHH

B1: C. elegans myosin motor domain MHC-B (1-790), wildtype (domain or fragment, UniProt P02566 1-790, looked up)
chain: MEHEKDPGWQYLRRTREQVLEDQSKPYDSKKNVWIPDPEEGYLAGEITATKGDQVTIVTARGNEVTLKKELVQEMNPPKFEKTEDMSNLSFLNDASVLHNLRSRYAAMLIYTYSGLFCVVINPYKRLPIYTDSCARMFMGKRKTEMPPHLFAVSDEAYRNMLQDHENQSMLITGESGAGKTENTKKVICYFAAVGASQQEGGAEVDPNKKKVTLEDQIVQTNPVLEAFGNAKTVRNNNSSRFGKFIRIHFNKHGRLASCDIEHYLLEKSRVIRQAPGERCYHIFYQIYSDFRPELKKELLLDLPIKDYWFVAQAELIIDGIDDVEEFQLTDEAFDILNFSAVEKQDCYRLMSAHMHMGNMKFKQRPREEQAEPDGTDEAEKASNMYGIGCEEFLKALTKPRVKVGTEWVSKGQNCEQVNWAVGAMAKGLYSRVFNWLVKKCNLTLDQKGIDRDYFIGVLDIAGFEIFDFNSFEQLWINFVNEKLQQFFNHHMFVLEQEEYAREGIQWVFIDFGLDLQACIELIEKPLGIISMLDEECIVPKATDLTLASKLVDQHLGKHPNFEKPKPPKGKQGEAHFAMRHYAGTVRYNCLNWLEKNKDPLNDTVVSAMKQSKGNDLLVEIWQDYTTQEEAAAKAKEGGGGGKKKGKSGSFMTVSMLYRESLNNLMTMLNKTHPHFIRCIIPNEKKQSGMIDAALVLNQLTCNGVLEGIRICRKGFPNRTLHPDFVQRYAILAAKEAKSDDDKKKCAEAIMSKLVNDGSLSEEMFRIGLTKVFFKAGVLAHLEDIRDEKL
notes: MHC-B muscle myosin (Myo4_Cel), C. elegans, motor domain residues 1-790; the state is told by the assay; also called MHC (1-790); Myo4_Cel; source: High Five insect cells, baculovirus; purified (Ni-NTA, SEC) alone or as a complex with UNC-45; not shown: His6, C-terminal, kept
binding result [1]: binds
binding result [2]: binds

B2
increase of melting temperature (Tm) [3]: 5.5 °C

B3: Myo4 peptide (residues 561–573) (peptide)
peptide: WKFIVSHYAVDVEY
notes: tryptophan introduced at the N-terminus for peptide quantification; also called myosin peptide; core of the myosin motif; source: synthetic peptide (in-house, HPLC purified)
Kd [4]: 600 nM
